Assay [1] has as its target T1, GST fusion of the cytoplasmic domain of human desmoglein-3 (human, UniProt P32926 641-999).
T1 construct: cytoplasmic domain of human desmoglein-3, cloned by PCR from HaCaT cells into pGEX-4T1; worked out from the printed primers: the forward primer begins with the codons for LTCDCGA, the reverse primer holds the stop codon (ends DPCSRLI-stop); also called Dsg3 tail; cytoplasmic tail of Dsg3; source: E. coli Rosetta (DE3) pLysS, purified (glutathione sepharose)
T1 sequence (looked up): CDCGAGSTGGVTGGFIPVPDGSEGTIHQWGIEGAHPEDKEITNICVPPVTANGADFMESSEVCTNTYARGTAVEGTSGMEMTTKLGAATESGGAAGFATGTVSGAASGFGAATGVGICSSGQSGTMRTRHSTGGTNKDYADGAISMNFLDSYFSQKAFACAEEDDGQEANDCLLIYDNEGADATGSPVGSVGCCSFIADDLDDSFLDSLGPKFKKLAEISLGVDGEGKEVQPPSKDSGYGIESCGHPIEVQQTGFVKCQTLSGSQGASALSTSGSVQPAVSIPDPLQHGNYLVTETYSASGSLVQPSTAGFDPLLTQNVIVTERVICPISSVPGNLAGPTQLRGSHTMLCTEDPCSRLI
Put plainly: pull-down; GST-tagged cytoplasmic domains of Dsg1-3 immobilised on glutathione sepharose, HaCaT lysate (1 mg), overnight at 4 °C; 10 mM Tris-HCl pH 8.0, 150 mM NaCl, 5 mM EDTA, 0.5% Triton X-100, 60 mM N-octylglucoside; Western blot; GST as negative control. The conditions noted are these: one partner purified.

Assay [2] deals with T2, flotillin-1-GST fusion (rat, full length) (rat, UniProt Q9Z1E1 1-428).
T2 construct: full length rat flotillin-1 in the pET41a vector; pET41a may add further tags (His, S-tag) besides GST (surmised); also called Flot-GST; flotillin-GST; source: E. coli Rosetta (DE3) pLysS, purified (glutathione sepharose, eluted with reduced glutathione)
T2 sequence (looked up): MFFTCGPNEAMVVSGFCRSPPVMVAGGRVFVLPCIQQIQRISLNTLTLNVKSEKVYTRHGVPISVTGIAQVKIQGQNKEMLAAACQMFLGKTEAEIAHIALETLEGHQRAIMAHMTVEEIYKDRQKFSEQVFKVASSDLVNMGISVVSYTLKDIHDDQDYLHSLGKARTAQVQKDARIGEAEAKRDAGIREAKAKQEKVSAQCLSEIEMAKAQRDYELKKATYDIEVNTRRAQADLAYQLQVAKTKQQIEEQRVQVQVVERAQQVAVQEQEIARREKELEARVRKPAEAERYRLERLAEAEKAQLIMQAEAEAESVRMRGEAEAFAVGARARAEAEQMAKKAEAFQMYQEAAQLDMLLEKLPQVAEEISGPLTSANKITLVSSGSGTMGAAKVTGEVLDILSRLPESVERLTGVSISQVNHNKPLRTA
The experiment in a line: pull-down; Dsg3-MBP (5 μg) immobilised on amylose resin, eluted flotillin-GST proteins in solution; 50 mM Tris-HCl pH 7.5, 150 mM NaCl, 0.01% Triton X-100, 1 mM DTT, 1 mM EDTA, 1% BSA, on ice 2-3 h; Western blot; MBP and GST as controls. The conditions noted are these: both partners purified.

B1: flotillin-2 (natural protein, human (endogenous in HaCaT), UniProt Q14254 1-428, looked up)
chain: MGNCHTVGPNEALVVSGGCCGSDYKQYVFGGWAWAWWCISDTQRISLEIMTLQPRCEDVETAEGVALTVTGVAQVKIMTEKELLAVACEQFLGKNVQDIKNVVLQTLEGHLRSILGTLTVEQIYQDRDQFAKLVREVAAPDVGRMGIEILSFTIKDVYDKVDYLSSLGKTQTAVVQRDADIGVAEAERDAGIREAECKKEMLDVKFMADTKIADSKRAFELQKSAFSEEVNIKTAEAQLAYELQGAREQQKIRQEEIEIEVVQRKKQIAVEAQEILRTDKELIATVRRPAEAEAHRIQQIAEGEKVKQVLLAQAEAEKIRKIGEAEAAVIEAMGKAEAERMKLKAEAYQKYGDAAKMALVLEALPQIAAKIAAPLTKVDEIVVLSGDNSKVTSEVNRLLAELPASVHALTGVDLSKIPLIKKATGVQV
notes: flotillin-2, endogenous in human HaCaT keratinocytes; also called Flot-2; source: endogenous, HaCaT lysate
As for B1, the “relative amount pulled down (normalised to the fusion protein), against the Dsg1 and Dsg2 pulldowns” value in assay [1] is approximately 2 fold.

B2: Dsg3-MBP fusion protein (domain or fragment, human, UniProt P32926 641-999, looked up)
chain: CDCGAGSTGGVTGGFIPVPDGSEGTIHQWGIEGAHPEDKEITNICVPPVTANGADFMESSEVCTNTYARGTAVEGTSGMEMTTKLGAATESGGAAGFATGTVSGAASGFGAATGVGICSSGQSGTMRTRHSTGGTNKDYADGAISMNFLDSYFSQKAFACAEEDDGQEANDCLLIYDNEGADATGSPVGSVGCCSFIADDLDDSFLDSLGPKFKKLAEISLGVDGEGKEVQPPSKDSGYGIESCGHPIEVQQTGFVKCQTLSGSQGASALSTSGSVQPAVSIPDPLQHGNYLVTETYSASGSLVQPSTAGFDPLLTQNVIVTERVICPISSVPGNLAGPTQLRGSHTMLCTEDPCSRLI
notes: cytoplasmic domain of human desmoglein-3, cloned by PCR from HaCaT cells into pMAL-c2X; worked out from the printed primers: the forward primer begins with the codons for LTCDCGA, the reverse primer holds the stop codon (ends DPCSRLI-stop); source: E. coli Rosetta (DE3) pLysS, purified (amylose resin)
Turning to B2, the binding result in assay [2] is given as “binds”.

B3: flotillin-1 (natural protein, human (endogenous in HaCaT), UniProt O75955 1-427, looked up)
chain: MFFTCGPNEAMVVSGFCRSPPVMVAGGRVFVLPCIQQIQRISLNTLTLNVKSEKVYTRHGVPISVTGIAQVKIQGQNKEMLAAACQMFLGKTEAEIAHIALETLEGHQRAIMAHMTVEEIYKDRQKFSEQVFKVASSDLVNMGISVVSYTLKDIHDDQDYLHSLGKARTAQVQKDARIGEAEAKRDAGIREAKAKQEKVSAQYLSEIEMAKAQRDYELKKAAYDIEVNTRRAQADLAYQLQVAKTKQQIEEQRVQVQVVERAQQVAVQEQEIARREKELEARVRKPAEAERYKLERLAEAEKSQLIMQAEAEAASVRMRGEAEAFAIGARARAEAEQMAKKAEAFQLYQEAAQLDMLLEKLPQVAEEISGPLTSANKITLVSSGSGTMGAAKVTGEVLDILTRLPESVERLTGVSISQVNHKPLRTA
notes: flotillin-1, endogenous in human HaCaT keratinocytes; also called Flot-1; source: endogenous, HaCaT lysate
As to B3, the “relative amount pulled down (normalised to the fusion protein), against the Dsg1 and Dsg2 pulldowns” value in assay [1] is approximately 2 fold.
